Assay results from publication PMC2647295.

Target: MUC1-5TR (unglycosylated, five MUC1 tandem repeats) (UniProt P15941 126-225)
Assay: SPR

Sequence of MUC1-5TR (unglycosylated, five MUC1 tandem repeats) (P15941 126-225): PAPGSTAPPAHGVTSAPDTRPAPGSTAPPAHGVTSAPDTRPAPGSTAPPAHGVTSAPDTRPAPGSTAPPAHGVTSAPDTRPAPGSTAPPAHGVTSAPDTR

GAAGTGAAAATGACAGAACACAACA (ssDNA) [5TR1]
Kd: 21 nM

TACTGCATGCACACCACTTCAACTA (ssDNA) [5TR4]
Kd: 69 nM

CAAACAATCAAACAGCAGTGGGGTG (ssDNA) [5TR3]
Kd: 83 nM

GGCTATAGCACATGGGTAAAACGAC (ssDNA) [5TR2]
Kd: 85.2 nM
